The values that follow come from patent publication US20230338423A1 (published 2023).

One test has as its target T1, V5-tagged mouse Susd2 (mouse, UniProt Q9DBX3 23-820).
T1 construct: Retrovirally expressed in Susd2-/- OT-I T cells and precipitated from RIPA lysates with anti-V5 agarose; also called V5-Susd2; pMIG II-Susd2; not shown: V5 and His tag
T1 sequence: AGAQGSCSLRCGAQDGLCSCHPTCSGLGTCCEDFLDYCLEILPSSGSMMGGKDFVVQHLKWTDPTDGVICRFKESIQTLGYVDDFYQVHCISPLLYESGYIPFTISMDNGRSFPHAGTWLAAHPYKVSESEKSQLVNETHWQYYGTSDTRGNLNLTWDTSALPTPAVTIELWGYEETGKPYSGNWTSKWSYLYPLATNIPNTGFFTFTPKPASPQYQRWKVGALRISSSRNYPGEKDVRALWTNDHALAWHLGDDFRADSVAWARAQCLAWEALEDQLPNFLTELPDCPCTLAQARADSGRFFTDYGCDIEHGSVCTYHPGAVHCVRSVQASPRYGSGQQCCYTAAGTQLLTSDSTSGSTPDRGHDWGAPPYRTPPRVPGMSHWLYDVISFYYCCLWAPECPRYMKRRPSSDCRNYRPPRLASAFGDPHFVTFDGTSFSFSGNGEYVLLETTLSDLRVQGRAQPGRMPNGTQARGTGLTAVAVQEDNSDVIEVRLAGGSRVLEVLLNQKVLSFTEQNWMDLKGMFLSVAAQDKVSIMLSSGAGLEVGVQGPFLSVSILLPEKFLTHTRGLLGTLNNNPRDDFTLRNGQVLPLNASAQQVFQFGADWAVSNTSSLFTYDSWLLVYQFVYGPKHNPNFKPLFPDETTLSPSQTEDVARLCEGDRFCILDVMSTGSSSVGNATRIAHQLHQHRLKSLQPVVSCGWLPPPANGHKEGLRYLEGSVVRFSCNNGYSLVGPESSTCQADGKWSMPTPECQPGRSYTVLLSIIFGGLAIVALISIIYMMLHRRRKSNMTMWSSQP
Briefly: anti-V5 immunoprecipitation and immunoblot, Susd2-reconstituted Susd2-/- OT-I T cells. For orientation: A western blot detects proteins with antibodies after separation by electrophoresis.

For test [1], the target named is T2, V5-SUSD2 (human SUSD2, V5-tagged) (human, UniProt Q9UGT4 28-822).
T2 construct: Overexpressed in 293T cells or Jurkat T cells; also called SUSD2^WT; not shown: V5 and His tag
T2 sequence: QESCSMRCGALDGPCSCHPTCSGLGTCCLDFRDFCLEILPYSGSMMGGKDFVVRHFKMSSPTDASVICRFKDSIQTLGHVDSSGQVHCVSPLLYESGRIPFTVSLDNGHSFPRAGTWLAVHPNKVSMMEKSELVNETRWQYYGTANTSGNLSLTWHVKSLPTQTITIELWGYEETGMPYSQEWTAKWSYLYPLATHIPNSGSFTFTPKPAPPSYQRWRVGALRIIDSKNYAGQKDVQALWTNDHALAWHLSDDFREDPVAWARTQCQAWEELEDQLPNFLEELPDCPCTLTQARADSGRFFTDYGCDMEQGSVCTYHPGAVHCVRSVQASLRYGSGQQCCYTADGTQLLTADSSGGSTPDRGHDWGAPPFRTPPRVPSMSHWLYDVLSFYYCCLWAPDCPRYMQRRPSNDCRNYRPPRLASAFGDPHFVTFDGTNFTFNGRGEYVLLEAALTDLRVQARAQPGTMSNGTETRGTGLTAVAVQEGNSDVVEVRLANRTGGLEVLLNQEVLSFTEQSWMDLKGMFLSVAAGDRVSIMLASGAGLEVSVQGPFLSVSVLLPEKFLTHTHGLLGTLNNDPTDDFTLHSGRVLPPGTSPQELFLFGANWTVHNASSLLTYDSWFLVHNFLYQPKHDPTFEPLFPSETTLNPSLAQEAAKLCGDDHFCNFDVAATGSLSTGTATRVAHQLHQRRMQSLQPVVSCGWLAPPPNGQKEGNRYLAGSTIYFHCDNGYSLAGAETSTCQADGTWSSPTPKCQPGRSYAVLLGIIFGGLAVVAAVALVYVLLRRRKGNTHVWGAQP
Description: anti-V5 immunoprecipitation and immunoblot, Jurkat T cells.

Description for V5-tagged mouse Susd2: Immunoprecipitation and immunoblotting. For immunoprecipitation, cells were lysed in RIPA buffer supplemented with cOmplete™ Protease Inhibitor Cocktail (Sigma-Aldrich). […] Samples were washed 5 times with cold RIPA buffer. To elute proteins from the beads, samples were incubated with 30 μl of SDS sample buffer at 95° C. for 10 minutes. Protein content in the supernatant was analyzed by immunoblotting. For immunoblotting, electrophoresis of protein was performed by using the NuPAGE system (Invitrogen) according to the manufacturer's protocol. Briefly, cultured CD8⁺ T cells or Jurkat cells were collected and lysed with RIPA buffer. Proteins were separated on a NuPAGE precast gel and were transferred onto nitrocellulose membranes (Bio-Rad). Appropriate primary antibodies and HRP-conjugated secondary antibodies were used and proteins were detected using the Enhanced Chemiluminescent (ECL) reagent (Thermo Fisher Scientific).

B1: mouse IL-2Rβ (endogenous, OT-I T cells) (receptor, UniProt P16297 27-539, looked up)
chain: AVKNCSHLECFYNSRANVSCMWSHEEALNVTTCHVHAKSNLRHWNKTCELTLVRQASWACNLILGSFPESQSLTSVDLLDINVVCWEEKGWRRVKTCDFHPFDNLRLVAPHSLQVLHIDTQRCNISWKVSQVSHYIEPYLEFEARRRLLGHSWEDASVLSLKQRQQWLFLEMLIPSTSYEVQVRVKAQRNNTGTWSPWSQPLTFRTRPADPMKEILPMSWLRYLLLVLGCFSGFFSCVYILVKCRYLGPWLKTVLKCHIPDPSEFFSQLSSQHGGDLQKWLSSPVPLSFFSPSGPAPEISPLEVLDGDSKAVQLLLLQKDSAPLPSPSGHSQASCFTNQGYFFFHLPNALEIESCQVYFTYDPCVEEEVEEDGSRLPEGSPHPPLLPLAGEQDDYCAFPPRDDLLLFSPSLSTPNTAYGGSRAPEERSPLSLHEGLPSLASRDLMGLQRPLERMPEGDGEGLSANSSGEQASVPEGNLHGQDQDRGQGPILTLNTDAYLSLQELQAQDSVHLI
notes: whole, on cells; Endogenous, probed by immunoblot in Susd2 precipitates; also called CD122
Consider B1, for which the binding result with V5-tagged mouse Susd2 was “no binding”.

B2: mouse common γ chain (endogenous, OT-I T cells) (receptor, UniProt P34902 23-369, looked up)
chain: WSSKVLMSSANEDIKADLILTSTAPEHLSAPTLPLPEVQCFVFNIEYMNCTWNSSSEPQATNLTLHYRYKVSDNNTFQECSHYLFSKEITSGCQIQKEDIQLYQTFVVQLQDPQKPQRRAVQKLNLQNLVIPRAPENLTLSNLSESQLELRWKSRHIKERCLQYLVQYRSNRDRSWTELIVNHEPRFSLPSVDELKRYTFRVRSRYNPICGSSQQWSKWSQPVHWGSHTVEENPSLFALEAVLIPVGTMGLIITLIFVYCWLERMPPIPPIKNLEDLVTEYQGNFSAWSGVSKGLTESLQPDYSERFCHVSEIPPKGGALGEGPGGSPCSLHSPYWPPPCYSLKPEA
notes: whole, on cells; Endogenous, probed by immunoblot in Susd2 precipitates; also called common 7 chain
Take B2: the binding result with V5-tagged mouse Susd2 is “no binding”.

B3: mouse IL-15Rα (endogenous, OT-I T cells) (receptor, UniProt Q60819 33-263, looked up)
chain: GTTCPPPVSIEHADIRVKNYSVNSRERYVCNSGFKRKAGTSTLIECVINKNTNVAHWTTPSLKCIRDPSLAHYSPVPTVVTPKVTSQPESPSPSAKEPEAFSPKSDTAMTTETAIMPGSRLTPSQTTSAGTTGTGSHKSSRAPSLAATMTLEPTASTSLRITEISPHSSKMTKVAISTSVLLVGAGVVMAFLAWYIKSRQPSQPCRVEVETMETVPMTVRASSKEDEDTGA
notes: whole, on cells; Endogenous, probed by immunoblot in Susd2 precipitates
With B3, the binding result with V5-tagged mouse Susd2 is on record as “no binding”.

B4: endogenous IL-2Rα in human Jurkat T cells (receptor, UniProt P01589 22-272, looked up)
chain: ELCDDDPPEIPHATFKAMAYKEGTMLNCECKRGFRRIKSGSLYMLCTGNSSHSSWDNQCQCTSSATRNTTKQVTPQPEEQKERKTTEMQSPMQPVDQASLPGHCREPPPWENEATERIYHFVVGQMVYYQCVQGYRALHRGPAESVCKMTHGKTRWTQPQLICTGEMETSQFPGEEKPQASPEGRPESETSCLVTTTDFQIQTEMAATMETSIFTTEYQVAVAGCVFLLISVLLLSGLTWQRRQRKSRRTI
notes: whole, on cells; Endogenous protein, pulled down from Jurkat lysate
In the case of B4, the binding result in test [1] was “binds”.
